Data as given in PMC6824560, “Insight into the relationship between aryl-hydrocarbon receptor and β-catenin in human colon cancer cells” (PLoS ONE, 2019).

Molecular target: T1, human Arnt fused to Gal4 DNA-binding domain in pGBKT7 (human, UniProt P27540 1-789)
T1 construct: Arnt, human cDNA; This fusion alone induces the reporter; also called pGBK-Arnt; source: yeast two-hybrid fusion, yeast strain Y187
Experiment: two-hybrid; yeast two-hybrid in strain Y187, pGADT7 and pGBKT7 fusions, 1 μM 3MC or 0.1% DMSO for 12 h at 30°C, β-galactosidase read-out (o-nitrophenol-β-D-galactopyranoside); DDB1 or CUL4B co-expressed from pESC in some samples
Conditions: partners not purified

T1 sequence (P27540 whole entry, the tested form may be a part): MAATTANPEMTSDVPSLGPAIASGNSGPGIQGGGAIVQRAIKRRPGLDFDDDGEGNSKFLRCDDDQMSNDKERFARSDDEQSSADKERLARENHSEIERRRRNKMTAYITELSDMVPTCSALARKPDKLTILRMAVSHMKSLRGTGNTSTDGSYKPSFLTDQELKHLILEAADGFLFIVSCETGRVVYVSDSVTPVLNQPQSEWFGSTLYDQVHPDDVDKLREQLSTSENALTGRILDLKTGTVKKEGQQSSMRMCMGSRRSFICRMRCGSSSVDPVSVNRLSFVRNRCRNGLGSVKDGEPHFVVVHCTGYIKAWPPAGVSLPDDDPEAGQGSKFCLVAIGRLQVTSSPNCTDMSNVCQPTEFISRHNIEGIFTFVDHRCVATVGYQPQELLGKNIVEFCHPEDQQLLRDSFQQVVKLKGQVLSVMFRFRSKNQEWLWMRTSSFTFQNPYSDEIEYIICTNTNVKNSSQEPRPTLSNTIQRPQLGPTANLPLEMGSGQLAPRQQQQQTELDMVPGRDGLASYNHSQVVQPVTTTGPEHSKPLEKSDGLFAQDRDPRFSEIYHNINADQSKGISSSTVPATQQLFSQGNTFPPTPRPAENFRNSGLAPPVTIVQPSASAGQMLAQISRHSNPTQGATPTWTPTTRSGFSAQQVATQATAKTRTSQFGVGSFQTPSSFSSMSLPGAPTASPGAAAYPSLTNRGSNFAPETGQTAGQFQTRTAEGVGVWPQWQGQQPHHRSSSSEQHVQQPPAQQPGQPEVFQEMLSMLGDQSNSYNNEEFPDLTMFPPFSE

fold increase of two-hybrid reporter activity over pGBK-Arnt alone: ~3 fold
B1: human AhR fused to Gal4 activating domain in pGADT7 (natural protein, UniProt P35869 1-848, looked up)
chain: MNSSSANITYASRKRRKPVQKTVKPIPAEGIKSNPSKRHRDRLNTELDRLASLLPFPQDVINKLDKLSVLRLSVSYLRAKSFFDVALKSSPTERNGGQDNCRAANFREGLNLQEGEFLLQALNGFVLVVTTDALVFYASSTIQDYLGFQQSDVIHQSVYELIHTEDRAEFQRQLHWALNPSQCTESGQGIEEATGLPQTVVCYNPDQIPPENSPLMERCFICRLRCLLDNSSGFLAMNFQGKLKYLHGQKKKGKDGSILPPQLALFAIATPLQPPSILEIRTKNFIFRTKHKLDFTPIGCDAKGRIVLGYTEAELCTRGSGYQFIHAADMLYCAESHIRMIKTGESGMIVFRLLTKNNRWTWVQSNARLLYKNGRPDYIIVTQRPLTDEEGTEHLRKRNTKLPFMFTTGEAVLYEATNPFPAIMDPLPLRTKNGTSGKDSATTSTLSKDSLNPSSLLAAMMQQDESIYLYPASSTSSTAPFENNFFNESMNECRNWQDNTAPMGNDTILKHEQIDQPQDVNSFAGGHPGLFQDSKNSDLYSIMKNLGIDFEDIRHMQNEKFFRNDFSGEVDFRDIDLTDEILTYVQDSLSKSPFIPSDYQQQQSLALNSSCMVQEHLHLEQQQQHHQKQVVVEPQQQLCQKMKHMQVNGMFENWNSNQFVPFNCPQQDPQQYNVFTDLHGISQEFPYKSEMDSMPYTQNFISCNQPVLPQHSKCTELDYPMGSFEPSPYPTTSSLEDFVTCLQLPENQKHGLNPQSAIITPQTCYAGAVSMYQCQPEPQHTHVGQMQYNPVLPGQQAFLNKFQNGVLNETYPAELNNINNTQTTTHLQPLHHPSEARPFPDLTSSGFL
notes: aryl-hydrocarbon receptor (AhR), human cDNA; also called pGAD-AhR; aryl-hydrocarbon receptor; source: yeast two-hybrid fusion, yeast strain Y187
